Measured values taken from patent publication US20140348865A1, “[…] ON AN HIV-1 V1V2 SITE-OF-VULNERABILITY” (The United States of America, as represented by the …, priority 2011, published 2014).

Test system: PG9
Test: Immunoprecipitation of protein nanoparticles with PG9
Format: binding, human
Details: Protein A agarose, SDS-PAGE, Coomassie stain
Experimental: (§1) The minimal PG9 epitope (residues 154-177) or variations thereof, were inserted or fused to ferritin, encapsulin or SOR genes using the schemes shown in FIG. 59. The expression plasmids were transfected into HEK293 cells grown in the presence of swainsonine, or transfected into HEK293 GnTI^−/− cells. Particles were purified from the media using lectin affinity chromatography (snow drop lectin from Galanthus nivalis) followed by size-exclusion chromatography. Binding experiments were performed by incubating purified particles or particle-containing expression supernatant with the listed antibodies (PG9, PG16, VRC01) and Protein A agarose resin. After this incubation, the resin was pelleted and washed several times, and then incubated with SDS-containing buffer at 100 C. The solubilized and denatured proteins were separated by SDS-PAGE and visualized with Coomassie stain.

| Molecule | immunoprecipitation by PG9 |
| --- | --- |
| PG9e-encapsulin (ZM109): encapsulin particle displaying the minimal PG9 epitope (gp120 154-177) of HIV-1 strain ZM109 (protein) MEFLKRSFAPLTEKQWQEIDNRAREIFKTQLYGRKFVDVEGPYGWEYAAHPLGEVEVVKHSSFNITTDVKDRKQKVNATFGLRKSLPLIELRATFTLDLWELDNLERGKPNVDLSSLEETVRKVAEFEDEVIFRGCEKSGVKGLLSFEERKIECGSTPKDLLEAIVRALSIFSKDGIEGPYTLVINTDRWINFLKEEAGHYPLEKRVEECLRGGKIITTPRIEDALVVSERGGDFKLILGQDLSIGYEDREKDAVRLFITETFTFQVVNPEALILLK | immunoprecipitate |
| PG9e-ferritin (ZM109): ferritin particle displaying the minimal PG9 epitope (gp120 154-177) of HIV-1 strain ZM109 (protein) MLSKDIIKLLNEQVNKEMQSSNLYMSMSSWCYTHSLDGAGLFLFDHAAEEYEHAKKLIIFLNENNVPVQLTSISAPEHKFEGLTQIFQKAYEHEQHISESINNIVDHAIGVKHSSFNITTDVKDRKQKVNATFYGKDHATFNFLQWYVAEQHEEEVLFKDILDKIELIGNENHGLYLADQYVKGIAKSRKS | immunoprecipitate |

Test system: monoclonal antibody PG9
Test: ELISA of minimal epitope scaffolds with PG9
Format: binding, human
Details: GnTI- cell expression
Experimental: (§2) The supernatants of all wells expressing minimal epitope scaffolds were tested for binding to PG9, CH01, CH03, PGT145 and PGT142 antibodies through ELISA assays in which the supernatant was diluted 5-fold in PBS and incubated on nickel coated plates. […] Some, such as 2ZJR_A, were run over a protein A column coated in PG9 which was subsequently cleaved from the column resulting in an eluted complex consisting of the scaffolds and the PG9 Fab.

| Molecule | binding to monoclonal antibody PG9 |
| --- | --- |
| 2f7s_B: minimal PG9 epitope-scaffold, SEQ ID NO: 52, native scaffold PDB 2F7S (protein, Human immunodeficiency virus) DYDYLIKLLALGDSGVGKTTFLYRYTDNKFNPKFITTVGIDVKHASFNITTDVKDRKQKVNATFYDTAGQERFRSLTTAFFRDAMGFLLMFDLTSQQSFLNVRNWMSQLQANAYCENPDIVLIGNKADLPDQREVNERQARELADKYGIPYFETSAATGQNVEKAVETLLDLIMKRMEQCVE | bind |
| 2f7s_C: minimal PG9 epitope-scaffold, SEQ ID NO: 53, native scaffold PDB 2F7S (protein, Human immunodeficiency virus) DYDYLIKLLALGDSGVGKTTFLYRYTDNKFNPKFITTVGICVKHASFNITTDVKDRKQKVNATFYCTAGQERFRSLTTAFFRDAMGFLLMFDLTSQQSFLNVRNWMSQLQANAYCENPDIVLIGNKADLPDQREVNERQARELADKYGIPYFETSAATGQNVEKAVETLLDLIMKRMEQCVE | bind |
| 1YN3_A: minimal PG9 epitope-scaffold, SEQ ID NO: 28, native scaffold PDB 1YN3 (protein, Human immunodeficiency virus) GSHVSFNITTDVKDRKQKVNATFYKNQNISYKDLEGKVKSVLESNRGITDVDLRLSKQAKYTVNFKNGTKKVIDLKSGIYTANLINSSDIKSININID | bind |
| 3pyr_a: minimal PG9 epitope-scaffold, SEQ ID NO: 76, native scaffold PDB 3PYR (protein, Human immunodeficiency virus) MKTAYDVILAPVLSEKAYAGFAEGKYTFWVHPKATKTEIKNAVETAFKVKVVKVNTKHASFNITTDVKDRKQKVNATFAIVQVAPGQKIEALEGLIG | bind |
| 2vxs_a: minimal PG9 epitope-scaffold, SEQ ID NO: 37, native scaffold PDB 2VXS (protein, Human immunodeficiency virus) TNPKRSSDYYNRSTSPWNLHRNEDPERYPSVIWEAKCRHLGCINADGNVDYHMNSISQNITTDVKDRKQKVNATCTCVTPIVH | bind |
| 1vh8_c: minimal PG9 epitope-scaffold, SEQ ID NO: 65, native scaffold PDB 1VH8 (protein, Human immunodeficiency virus) SLIRIGHGFDVHAFGKHASFNITTDVKDRKQKVNATFGFIAHSDGDVALHALTDAILGAAALGDIGKLFPKNADSRGLLREAFRQVQEKGYKIGNVDITIIAQAPKMRPHIDAMRAKIAEDLQCDIEQVNVKATTTEKLGFTGRQEGIACEAVALLIRQ | bind |
| 1vh8_a: minimal PG9 epitope-scaffold, SEQ ID NO: 63, native scaffold PDB 1VH8 (protein, Human immunodeficiency virus) SLIRIGHGFDVHAFVKHCSFNITTDVKDRKQKVNATFYFIAHSDGDVALHALTDAILGAAALGDIGKLFPKNADSRGLLREAFRQVQEKGYKIGNVDITIIAQAPKMRPHIDAMRAKIAEDLQCDIEQVNVKATTTEKLGFTGRQEGIACEAVALLIRQ | bind |
| 1vh8 b: minimal PG9 epitope-scaffold, SEQ ID NO: 64, native scaffold PDB 1VH8 (protein, Human immunodeficiency virus) SLIRIGHGFDVHAFVKHASFNITTDVKDRKQKVNATFYFIAHSDGDVALHALTDAILGAAALGDIGKLFPKNADSRGLLREAFRQVQEKGYKIGNVDITIIAQAPKMRPHIDAMRAKIAEDLQCDIEQVNVKATTTEKLGFTGRQEGIACEAVALLIRQ | bind |
| 1x3e_C: minimal PG9 epitope-scaffold, SEQ ID NO: 68 in Table 2 (SEQ ID NO: 67 in b296), native scaffold PDB 1X3E (protein, Human immunodeficiency virus) GDTTITVVGNLTADPELRFTPSGAAVANFTVASTGSALFLRCNIWREAAENVAESLTRGSRVIVTGRLCVKHASFNITTDVKDRKQKVNATFYCVEVDEIGPSLR | bind |
| 1x3e_a: minimal PG9 epitope-scaffold, SEQ ID NO: 66, native scaffold PDB 1X3E (protein, Human immunodeficiency virus) GDTTITVVGNLTADPELRFTPSGAAVANFTVASTGSALFLRCNIWREAAENVAESLTRGSRVIVTGRLKVKHCSFNITTDVKDRKQKVNATFYEVEVDEIGPSLR | bind |
| 2zjr_a: minimal PG9 epitope-scaffold, SEQ ID NO: 17, native scaffold PDB 2ZJR (protein, Human immunodeficiency virus) SHYDILQAPVISEKAYSAMERGVYSFWVSPGATKTEIKDAIQQAFGVRVIGISVKHCSFNITTDVKDRKQKVNATFAIVRLAEGQSIEALAGQ | bind |
| 2zjr_b: minimal PG9 epitope-scaffold, SEQ ID NO: 18, native scaffold PDB 2ZJR (protein, Human immunodeficiency virus) SHYDILQAPVISEKAYSAMERGVYSFWVSPGATKTEIKDAIQQAFGVRVIGISTKHASFNITTDVKDRKQKVNATFAIVRLAEGQSIEALAGQ | bind |
| 1t0a_a: minimal PG9 epitope-scaffold, SEQ ID NO: 77, native scaffold PDB 1T0A (protein, Human immunodeficiency virus) KIRIGHGFDVHKFGKHASFNITTDVKDRKQKVNATFGLVAHSDGDVVLHAISDAILGAMALGDIGKHFPDTDAAYKGADSRVLLRHCYALAKAKGFELGNLDVTIIAQAPKMAPHIEDMRQVLAADLNADVADINVKATTTEKLGFTGRKEGIAVEAVVLLSRQG | bind |

Test system: PG9 Fab
Test: Gel filtration of epitope scaffold complex with PG9 Fab
Format: binding, human
Details: not given
Experimental: as §2

| Molecule | complex with PG9 Fab through gel filtration |
| --- | --- |
| 2zjr_a: minimal PG9 epitope-scaffold, SEQ ID NO: 17, native scaffold PDB 2ZJR (protein, Human immunodeficiency virus) SHYDILQAPVISEKAYSAMERGVYSFWVSPGATKTEIKDAIQQAFGVRVIGISVKHCSFNITTDVKDRKQKVNATFAIVRLAEGQSIEALAGQ | intact complex |
| 2ZJR: 2ZJR epitope-scaffold of FIG. 58; legend leaves open whether 2ZJR_A or 2ZJR_B (protein) SHYDILQAPVISEKAYSAMERGVYSFWVSPGATKTEIKDAIQQAFGVRVIGISVKHCSFNITTDVKDRKQKVNATFAIVRLAEGQSIEALAGQ | forms a stable complex |

Test system: PG16
Test: Immunoprecipitation of protein nanoparticles with PG16
Format: binding, human
Details: Protein A agarose, SDS-PAGE, Coomassie stain
Experimental: as §1

| Molecule | immunoprecipitation by PG16 |
| --- | --- |
| PG9e-ferritin (ZM109): ferritin particle displaying the minimal PG9 epitope (gp120 154-177) of HIV-1 strain ZM109 (protein) MLSKDIIKLLNEQVNKEMQSSNLYMSMSSWCYTHSLDGAGLFLFDHAAEEYEHAKKLIIFLNENNVPVQLTSISAPEHKFEGLTQIFQKAYEHEQHISESINNIVDHAIGVKHSSFNITTDVKDRKQKVNATFYGKDHATFNFLQWYVAEQHEEEVLFKDILDKIELIGNENHGLYLADQYVKGIAKSRKS | interacts |
